Experimental data reported in PMC10397247.
Like-named read-outs stand apart in the source and are kept apart here. Blank lines part the entries; values can stand above or below the binder they belong to.

Columns and labels:
[1] = target: T1, 4H619-bH; assay: two-hybrid library CCNG1;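 also: natural log of median RNA to DNA barcode read ratio; higher means stronger binding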
T1 chain: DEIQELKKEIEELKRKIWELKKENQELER

[2] = target: T2, 4H850-bH; assay: two-hybrid library CCNG1;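 also: natural log of median RNA to DNA barcode read ratio; higher means stronger binding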
T2 chain: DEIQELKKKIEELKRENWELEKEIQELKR

[3] = target: T3, 4H906-bH; assay: two-hybrid library CCNG1;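 also: natural log of median RNA to DNA barcode read ratio; higher means stronger binding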
T3 chain: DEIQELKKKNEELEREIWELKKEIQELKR

[4] = target: T4, 4H477-bH; assay: two-hybrid library CCNG1;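 also: natural log of median RNA to DNA barcode read ratio; higher means stronger binding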
T4 chain: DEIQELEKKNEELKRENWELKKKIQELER

[5] = target: T5, 4H492-bH; assay: two-hybrid library CCNG1;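 also: natural log of median RNA to DNA barcode read ratio; higher means stronger binding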
T5 chain: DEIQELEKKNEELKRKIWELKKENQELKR

[6] = target: T6, 4H741-bH; assay: two-hybrid library CCNG1;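 also: natural log of median RNA to DNA barcode read ratio; higher means stronger binding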
T6 chain: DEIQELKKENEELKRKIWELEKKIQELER

[7] = target: T7, 4H335-AA; assay: two-hybrid library CCmax; details: mean of both orientations
T7 chain: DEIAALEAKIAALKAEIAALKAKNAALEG

[8] = target: T8, 4H780-AA; assay: two-hybrid library CCmax; details: mean of both orientations
T8 chain: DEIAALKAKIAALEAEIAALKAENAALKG

[9] = target: T9, 4H3606-AA; assay: two-hybrid library CCmax; details: mean of both orientations
T9 chain: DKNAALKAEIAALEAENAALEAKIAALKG

[10] = target: T10, 4H2617-AA; assay: two-hybrid library CCmax; details: mean of both orientations
T10 chain: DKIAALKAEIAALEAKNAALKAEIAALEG

[11] = target: T11, 4H3655-AA; assay: two-hybrid library CCmax; details: mean of both orientations
T11 chain: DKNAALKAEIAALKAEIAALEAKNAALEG

[12] = target: T12, 4H2754-AA; assay: two-hybrid library CCmax; details: mean of both orientations
T12 chain: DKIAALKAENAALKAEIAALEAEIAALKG

[13] = target: T13, 4H717-AA; assay: two-hybrid library CCmax; details: mean of both orientations
T13 chain: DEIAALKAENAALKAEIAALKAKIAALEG

[14] = target: T14, 4H3112-AA; assay: two-hybrid library CCmax; details: mean of both orientations
T14 chain: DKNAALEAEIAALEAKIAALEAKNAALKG

[15] = target: T15, 4H678-AA; assay: two-hybrid library CCmax; details: mean of both orientations
T15 chain: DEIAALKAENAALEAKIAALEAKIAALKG

[16] = target: T16, 4H454-AA; assay: two-hybrid library CCmax; details: mean of both orientations
T16 chain: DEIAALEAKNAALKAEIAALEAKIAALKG

[17] = target: T17, 4H3844-AA; assay: two-hybrid library CCmax; details: mean of both orientations
T17 chain: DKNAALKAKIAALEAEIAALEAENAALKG

[18] = target: T18, 4H566-AA; assay: two-hybrid library CCmax; details: mean of both orientations
T18 chain: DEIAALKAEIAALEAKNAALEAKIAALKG

[19] = target: T19, 4H2642-AA; assay: two-hybrid library CCmax; details: mean of both orientations
T19 chain: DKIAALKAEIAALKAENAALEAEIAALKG

[20] = target: T20, 4H2729-AA; assay: two-hybrid library CCmax; details: mean of both orientations
T20 chain: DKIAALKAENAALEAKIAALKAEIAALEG

[21] = target: T21, 4H2575-AA; assay: two-hybrid library CCmax; details: mean of both orientations
T21 chain: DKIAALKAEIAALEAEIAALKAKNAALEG

[22] = target: T22, 4H881-AA; assay: two-hybrid library CCmax; details: mean of both orientations
T22 chain: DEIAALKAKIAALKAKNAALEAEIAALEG

[23] = target: T23, 4H2466-AA; assay: two-hybrid library CCmax; details: mean of both orientations
T23 chain: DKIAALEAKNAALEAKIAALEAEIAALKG

[24] = target: T24, 4H2837-AA; assay: two-hybrid library CCmax; details: mean of both orientations
T24 chain: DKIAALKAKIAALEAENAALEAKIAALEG

[25] = target: T25, 4H3627-AA; assay: two-hybrid library CCmax
T25 chain: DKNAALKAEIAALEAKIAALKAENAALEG

[26] = target: T26, 4H317-AA; assay: two-hybrid library CCmax; details: mean of both orientations
T26 chain: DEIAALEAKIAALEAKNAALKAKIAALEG

[27] = target: T27, 4H342-AA; assay: two-hybrid library CCmax; details: mean of both orientations
T27 chain: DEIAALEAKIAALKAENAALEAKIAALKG

[28] = target: T28, 4H3427-AA; assay: two-hybrid library CCmax; details: mean of both orientations
T28 chain: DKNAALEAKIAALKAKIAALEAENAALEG

[29] = target: T29, 4H48-AA; assay: two-hybrid library CCmax; details: mean of both orientations
T29 chain: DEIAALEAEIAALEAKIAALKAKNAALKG

[30] = target: T30, 4H3921-AA; assay: two-hybrid library CCmax; details: mean of both orientations
T30 chain: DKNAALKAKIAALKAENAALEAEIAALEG

[31] = target: T31, 4H2949-AA; assay: two-hybrid library CCmax; details: mean of both orientations
T31 chain: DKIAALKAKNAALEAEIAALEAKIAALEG

[32] = target: T32, 4H2944-AA; assay: two-hybrid library CCmax; details: mean of both orientations
T32 chain: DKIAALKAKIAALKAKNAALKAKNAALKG

[33] = target: T33, 4H906-AA; assay: two-hybrid library CCmax; details: mean of both orientations
T33 chain: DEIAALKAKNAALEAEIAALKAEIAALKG

[34] = target: T34, 4H3343-AA; assay: two-hybrid library CCmax; details: mean of both orientations
T34 chain: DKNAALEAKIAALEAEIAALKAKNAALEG

[35] = target: T35, 4H794-AA; assay: two-hybrid library CCmax; details: mean of both orientations
T35 chain: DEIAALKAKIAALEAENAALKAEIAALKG

[36] = target: T36, 4H429-AA; assay: two-hybrid library CCmax
T36 chain: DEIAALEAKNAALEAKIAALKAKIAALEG

[37] = target: T37, 4H2505-AA; assay: two-hybrid library CCmax
T37 chain: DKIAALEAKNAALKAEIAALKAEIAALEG

[38] = target: T38, 4H2883-AA; assay: two-hybrid library CCmax; details: mean of both orientations
T38 chain: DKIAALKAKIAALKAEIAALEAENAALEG

[39] = target: T39, 4H993-AA; assay: two-hybrid library CCmax; details: mean of both orientations
T39 chain: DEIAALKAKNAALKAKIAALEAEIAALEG

[40] = target: T40, 4H605-AA; assay: two-hybrid library CCmax; details: mean of both orientations
T40 chain: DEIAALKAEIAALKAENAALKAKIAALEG

[41] = target: T41, 4H40-bH; assay: two-hybrid library CCNG1
T41 chain: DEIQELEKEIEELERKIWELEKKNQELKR

[42] = target: T42, 4H932-bH; assay: two-hybrid library CCNG1
T42 chain: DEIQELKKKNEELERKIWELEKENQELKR

[43] = target: T43, 4H949-bH; assay: two-hybrid library CCNG1
T43 chain: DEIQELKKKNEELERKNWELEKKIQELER

[44] = target: T44, 4H796-bH; assay: two-hybrid library CCNG1
T44 chain: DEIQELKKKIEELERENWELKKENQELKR

[45] = target: T45, 4H56-bH; assay: two-hybrid library CCNG1
T45 chain: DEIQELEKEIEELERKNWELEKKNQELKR

[46] = target: T46, 4H730-bH; assay: two-hybrid library CCNG1
T46 chain: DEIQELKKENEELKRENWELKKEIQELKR

- interaction score [7]: -1.56
- interaction score [8]: -1.42
- interaction score [9]: 2.32
- interaction score [10]: 1.93
- interaction score [11]: -1.41
- interaction score [12]: -1.23
- interaction score [13]: -1.55
- interaction score [14]: -1.21
- interaction score [15]: -0.574
- interaction score [16]: -0.951
- interaction score [17]: 1.55
- interaction score [18]: 1.33
- interaction score [19]: 1.82
- interaction score [20]: -0.695
- interaction score [21]: -1.03
- interaction score [22]: -1
- interaction score [23]: 0.221
- interaction score [24]: 1.73
- interaction score ([25]; mean of both orientations): -1.42
- interaction score [26]: 1.92
- interaction score [27]: 2.37
- interaction score [28]: -1.45
- interaction score [29]: -0.193
- interaction score [30]: -1.77
- interaction score [31]: 1.51
- interaction score [32]: -0.902
- interaction score [33]: -1.04
- interaction score [34]: -1.29
- interaction score [35]: 1.33
- interaction score ([36]; mean of both orientations): -1.55
- interaction score ([37]; mean of both orientations): -1.59
- interaction score [38]: -1.21
- interaction score [39]: -1.5
- interaction score [40]: 0.852
B3: 4H2393-AA (peptide)
chain: DKIAALEAKIAALKAENAALKAEIAALEG

- interaction score [4]: -0.00296
- interaction score [41]: -0.0343
- interaction score [5]: 0.0489
- interaction score [6]: 0.646
B4: 4H40-bH (peptide)
chain: DEIQELEKEIEELERKIWELEKKNQELKR

- interaction score [42]: -0.0294
- interaction score [43]: -1.15
- interaction score [44]: 0.682
- interaction score [45]: -0.661
- interaction score [46]: -0.307
B5: 4H56-bH (peptide)
chain: DEIQELEKEIEELERKNWELEKKNQELKR

Second part, the binder before the results:

B1: 4H619-bH (peptide)
chain: DEIQELKKEIEELKRKIWELKKENQELER
- interaction score [1]: 0.749
- interaction score [2]: 0.196
- interaction score [3]: -0.349

B2: 4H477-bH (peptide)
chain: DEIQELEKKNEELKRENWELKKKIQELER
- interaction score [4]: 0.526
- interaction score [5]: -1.31
- interaction score [6]: -0.234

B6: 4H2505-AA (peptide)
chain: DKIAALEAKNAALKAEIAALKAEIAALEG
- interaction score [7]: -1.01
- interaction score [8]: -1.6
- interaction score [9]: 1.04
- interaction score [10]: -0.92
- interaction score [11]: -1.61
- interaction score [12]: 1.69
- interaction score [13]: -0.029
- interaction score [14]: -1.11
- interaction score [15]: 1.78
- interaction score [16]: 2.21
- interaction score [17]: -1.01
- interaction score [18]: -0.341
- interaction score [19]: -0.234
- interaction score [20]: 2.02
- interaction score [21]: -0.277
- interaction score [22]: -1.43
- interaction score [24]: 1.03
- interaction score [25]: -1.54
- interaction score [26]: -1.65
- interaction score [27]: 1.06
- interaction score [28]: -1.04
- interaction score [29]: 0.908
- interaction score [30]: -0.328
- interaction score [31]: 1.68
- interaction score [32]: -1.9
- interaction score [33]: 0.636
- interaction score [34]: -1.59
- interaction score [35]: -0.881
- interaction score [36]: 1.6
- interaction score [37]: 1.09
- interaction score [38]: -0.918
- interaction score [39]: -1.53
- interaction score [40]: -1.14
